Columns and labels:
Test in all cases: Western blot, supernatants of 293FS cells
[1] = target: T1, soluble human IL-3Rα 1-306-His E51A (human, UniProt P26951 19-307)
T1 construct: supernatant of 293FS cells; also called E51, soluble alanine
T1 sequence: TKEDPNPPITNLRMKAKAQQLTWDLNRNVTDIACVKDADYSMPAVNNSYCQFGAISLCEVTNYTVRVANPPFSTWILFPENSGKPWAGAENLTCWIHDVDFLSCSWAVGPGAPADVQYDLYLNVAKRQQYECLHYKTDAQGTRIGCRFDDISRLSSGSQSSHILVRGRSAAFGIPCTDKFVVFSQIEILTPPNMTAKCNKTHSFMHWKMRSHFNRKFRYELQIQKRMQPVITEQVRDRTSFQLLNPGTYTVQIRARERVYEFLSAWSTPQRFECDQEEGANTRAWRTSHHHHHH

[2] = target: T2, soluble human IL-3Rα 1-306-His R84A (human, UniProt P26951 19-307)
T2 construct: supernatant of 293FS cells; also called R84, soluble alanine
T2 sequence: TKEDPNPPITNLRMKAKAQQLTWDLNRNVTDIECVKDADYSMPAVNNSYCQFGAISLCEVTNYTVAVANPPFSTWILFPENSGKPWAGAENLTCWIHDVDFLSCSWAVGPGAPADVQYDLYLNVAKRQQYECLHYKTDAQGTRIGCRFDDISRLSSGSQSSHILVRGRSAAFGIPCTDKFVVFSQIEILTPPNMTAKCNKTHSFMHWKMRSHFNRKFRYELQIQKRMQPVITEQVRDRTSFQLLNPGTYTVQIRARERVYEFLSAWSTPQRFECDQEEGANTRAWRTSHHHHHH

[3] = target: T3, soluble human IL-3Rα 1-306-His F90A (human, UniProt P26951 19-307)
T3 construct: supernatant of 293FS cells; also called F90, soluble alanine
T3 sequence: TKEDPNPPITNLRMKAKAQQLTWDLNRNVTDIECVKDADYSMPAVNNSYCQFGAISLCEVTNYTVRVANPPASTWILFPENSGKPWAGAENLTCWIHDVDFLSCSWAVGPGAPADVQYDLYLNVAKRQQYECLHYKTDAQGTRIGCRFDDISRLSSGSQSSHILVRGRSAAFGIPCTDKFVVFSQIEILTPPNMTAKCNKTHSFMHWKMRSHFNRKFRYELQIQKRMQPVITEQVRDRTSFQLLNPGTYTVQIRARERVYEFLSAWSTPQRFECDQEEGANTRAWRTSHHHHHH

[4] = target: T4, soluble human IL-3Rα 1-306-His P97A (human, UniProt P26951 19-307)
T4 construct: supernatant of 293FS cells; also called P97, soluble alanine
T4 sequence: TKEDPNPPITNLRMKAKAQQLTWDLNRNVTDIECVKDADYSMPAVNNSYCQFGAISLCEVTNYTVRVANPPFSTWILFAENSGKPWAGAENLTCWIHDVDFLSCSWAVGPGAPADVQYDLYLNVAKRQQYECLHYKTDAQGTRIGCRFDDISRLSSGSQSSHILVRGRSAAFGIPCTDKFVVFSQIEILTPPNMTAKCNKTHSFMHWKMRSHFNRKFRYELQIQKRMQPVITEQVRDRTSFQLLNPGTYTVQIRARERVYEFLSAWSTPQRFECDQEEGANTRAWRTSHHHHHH

Measured: binding result

B1: antibody CSL362 (antibody, V domains shown)
VH: EVQLVQSGAEVKKPGESLKISCKGSGYSFTDYYMKWARQMPGKGLEWMGDIIPSNGATFYNQKFKGQVTISADKSISTTYLQWSSLKASDTAMYYCARSHLLRASWFAYWGQGTMVTVSS
VL: DIVMTQSPDSLAVSLGERATINCESSQSLLNSGNQKNYLTWYQQKPGQPPKPLIYWASTRESGVPDRFSGSGSGTDFTLTISSLQAEDVAVYYCQNDYSYPYTFGQGTKLEIKR
no binding: all assays above

Source: US20160031996A1 (CSL, published 2016)
